Assay: yeast display, Sf9 membrane polyspecificity reagent, FACS + sequencing; frameworks hold sequencing errors
In short: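 A synthetic nanobody library was expressed on Saccharomyces cerevisiae BJ5465 by galactose induction for 36–48 hours. The library was stained for 1 hour at 4 °C with 10% biotinylated, detergent-solubilized Sf9 membrane reagent and enriched with streptavidin microbeads before FACS. Low and high (top ~1%) gates were set on anti-HA fluorescence for expression and streptavidin fluorescence for reagent binding, and each polyreactivity label reflects the gate of origin.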

QVQLVESGGGLVQAGGSLRLSCAASGRTFRWNAMGWYRQAPGKERELVAAITKSGGSTYYADSVKGRFTISRDNAKNTVYLQMNSLIPEDTAVYYCNAEPPLYPWAYPSDSYNFWGQGTQVTVSS
polyreactivity (PSR sort gate): low polyreactivity

QVQLVESGGGLVHAGGRLRLSCAASGRTFVSYVMGWYRQAPGKERELVAAISGNGGRTYYADSVKGRFTISRDNAKNTVYLQMNSLKPEDTAVYYCAAELFVSYFDVLMYYWGQGTQVTVSS
polyreactivity (PSR sort gate): high polyreactivity

QVQLVESGGGLVQAGGSLRLSCAASGRTFPYYAMGWYRQAPGKERELVAVISSADSTNYADSVKGRFTISRDNAKNTVYLQMNSLKPEDTAVYYCAADAVYYGDDYWGQCTQVTVSS
polyreactivity (PSR sort gate): low polyreactivity

QVQLVESGGGLVQAGGSLRLSCAASGITIYGYAMGWYRQAPGKERELVAAISFRSGSTYYADSVKGRFTISRDNAKNTVYLQMNSLKPEDTAVYYCATDRYYRDDYWGQGTQVTVSS
polyreactivity (PSR sort gate): low polyreactivity

QVQLVESGGGLVQAGGSLRLSCAASGSIFYRNVMGWYRQAPGKERELVAAISQRGGSTYYADSVKGRFTISRDNAKNTVYLQMNSLKPEDTAVYYCIAASRGAGTSIWSWYDHWGQGTQVTVSS
polyreactivity (PSR sort gate): low polyreactivity

QVQLVESGGGLVQAGGSLRLSCAASGRPFGRYAMGWYRPAPGKERELVAAITGSGGSTYYADSVKGRYTMSRDNAKNTVYLQMNSLKPEDTAVYYCAAPQRYYYTAMGYWGQGTQVTVSS
polyreactivity (PSR sort gate): high polyreactivity

QVQLVESGGGLVQAGGSLRLSCAASGSIFYGYAMGWYRQAPGKERELVAAIRWSDGSTYYADSVKGRFTISRDNAKNTVYLQMNSLKPEDTAVYYCNADLWVPSYLWGDYWGQGTQVTVSS
polyreactivity (PSR sort gate): low polyreactivity

QVQLVESGGGLVQAGGSLRLSCAASGIILGSNAKGWYRQAPGKERELVAGITSGGGTYYADSVKGRFTISRDNAKKTVYLQMNSLKPEDTAVYYCAKLYFHYYRYGYWGQGTQVTVSS
polyreactivity (PSR sort gate): low polyreactivity

QVQIVESGGGLVQAGGSLRLSCAASGRTFDHNAMGWYRQAPGKERELVATISGSGGSTNYADSVKGRFTISRDNAKNTVDLQMNSLKPEDTAVYYCATPRVWYYNQYSELDYWGQGTQVTVSS
polyreactivity (PSR sort gate): high polyreactivity

QVQLVESGGGLVQAGGSLRLSCAASGRTFTWYTMGCYIQAPGKERELVAAISGSGSRTYYADSVKGRFTISRDNAKNTVYLQMNSLKPEDTAVYYCAKDKSARYRYDYWGQGTQVTVSS
polyreactivity (PSR sort gate): low polyreactivity

QVQLVESGGGLVQAGGSLRLSCAASGYTFGVYVMGWYRQAPGKERELVAAISGSTYYAYSVKGRFTISRDNAKNTVYLQMNSLKPEDTAVYYCAAESYFFSPRTREKFDYWGQGTQVTVSS
polyreactivity (PSR sort gate): low polyreactivity

QVQLVESGGGLVQAGGSLRLSCAGSGSISYFNAMGWYRQAPGKERELVAAISYSGGSTYYADSVKGRFTISRDNAKNTVYLQMNSLKPEDTAVYYCAADRLIGWRKTYYYWGQGTQVTVSS
polyreactivity (PSR sort gate): high polyreactivity

QVQLVESGGGLVQAGGSLRLSCAASGFIFTWYAMGWYRQAPGKEREFVAGISRSGGRTYYADSLKGRFTISRDNAKNTVYLQMNSQKPEDTAVYDCNAVLVGYRPYREFDHWGQGTQVTVSS
polyreactivity (PSR sort gate): high polyreactivity

QVQLVESGGGLVQAGGSLRLSCDASGRHFKRYDMGWYRQAPGKERELVAAISWSGTSTHYADSVKGRLTISRDNAKNTVYLQMNSLKPEDTAVYYCAAYWFNTSYPGRYDYWGQGTQVTVSS
polyreactivity (PSR sort gate): high polyreactivity

QAQLVESGGGLVQAGGSLRLSCAASGSIMYYAMGWYRHAPWKERELVATITRGGSTYYADSVKGRFTISRDNAKNTVYLQMNSLKPEDTAVYYCAKQFLPSGVYYEYDSWGQGTQVTVSS
polyreactivity (PSR sort gate): low polyreactivity

QVQLVESVGGLVQAGGRLRLSCAASGITFEPYAMGWYRPAPGKEREFVADITWSGGSTYYADSVKGRFTISRDNAKNTVYLQMNSLKPEDTAVYYCAADGWTSYWSDYWGQGTQVTVSS
polyreactivity (PSR sort gate): low polyreactivity

QVQLVESGGCLVQAGGSLRLSCAASGLIFRKYARGWSRQAPGKERELVAAISVSGGSTYYADSVKGRFTISRDNAKNTVYLQMNSLKPEDTAVYYCAATDFGRRGGSFYYWGQGTQVTVSS
polyreactivity (PSR sort gate): high polyreactivity

QVQLQESGGGLVQAGGDLRLSCAASGNIFLDYIMGWYRQAPGKEREFVAGIDRGANTNYADSVKGRFTISRDNAKNTLYLQMNSLKPEDTAVYYCAVHTAIVPDFIYWGQGTEVTVSS
polyreactivity (PSR sort gate): low polyreactivity

QVQLVESGGGLVQAGGSLRLSCAASGSTLYGYAMGWYRQAPGNERELVAAISVSGGRTYYADSVKGRFTISRDNAKNTVYLQMNSLKPEDTAVYYCAAYGTTRMDYWGQGTQVTVSS
polyreactivity (PSR sort gate): high polyreactivity

QVQLVESGGGLVQAGGSLRLSCAASGSTLKLNAMGWYRQAPGKERELVAAITRSGGSTYYADSVKGRFTISRDNAKNTVYLQMNSLKPEDTAVYYCAADVLWDEFGYWGQGTQVTVSS
polyreactivity (PSR sort gate): low polyreactivity

QVQRVESGGGLVQAGGSLRLSCAASGSIFFDGNAMGWYRQAPGQERELVAAISVSGGSTYYADSVKGRFTISRDNAKNTVYLQMNSLKPEDTAVYYCAKYPSKSYVPGDYWGQGTQVTVSS
polyreactivity (PSR sort gate): low polyreactivity

QVQLVESGVGLVQAGGSLRLSCAASGNIFWWNAMGWYRQAPGKERELVAAITSDSTTYYADSVKGRFTISRDNAKKTVYFQMNSLKPEDTAVYYCAAYSYGGQGVDYGYWGQGTQVNVSS
polyreactivity (PSR sort gate): low polyreactivity

QVQLVESGGGLVQAGGSLRLSCAASGSIFRSYTMGWYRQAPGKEREFVAAITKRGGSTYYADSVKGRFTISRDNAKNTVYLQMNSLKPEDTAVYYCAAVAGHYYYFRELGYWGQGTQVTVSS
polyreactivity (PSR sort gate): high polyreactivity

QVQLVESGAGLVQAGGSLRLTCAASGFIFGYNARGWYRPAPGKERELVAAIRYRGVSTYYADSVKGRFTISRDNAKNTFYLQMNSLKPVETAVYYCNARTRVKTTQSYDRNYYYWGQGTQVTVSS
polyreactivity (PSR sort gate): high polyreactivity

QVQLVESGGGLVQAGGSLRLSCAASGSIFISNAMGWYRQAPGTERELVAAISRSGARTYYADSVKGRFTISRDNAKNTVYLQMNSLKPEDTAVYYCAVVGYSPYKYDYWGQGTQVTVSS
polyreactivity (PSR sort gate): high polyreactivity

QVQLVESGGGLVQAGGSLRLSCAASGSIFYLYAMGWYRQAPGKERELVASIRWSGGNTYYADSVKGRFTISRDNAKNTVYLQMNSLKPEDTAVYYCAARTSTHGSSYSIRRFGYWGQGTQVTVSS
polyreactivity (PSR sort gate): high polyreactivity

QVQLQESGGGLVQAGGSLRLSCAASGTIFTARFMGWYRQAPGKERELVATITDGGNTNHADSVKGRFTISRDNAKNTVYLHMNSLKPEDAAVYYCAAGEVDNDTLLYWGQGSQVTVSS
polyreactivity (PSR sort gate): low polyreactivity

QVQLVESGGGLVQAGGSLRLSCASSGFIFSTSALGWYRQAPGKERELVAAISRTGGSTYYADSDKGRFTISRDNANNTVYLQMNSLKPEDTAVYYCAAAIYSFWYEYNYWGHGTQVTVSS
polyreactivity (PSR sort gate): high polyreactivity

QVQLVESGGGLVQAGGSLRLSCAASGRTFPYYAMGWYRQAPGKERELVAVITSGASTYYADSVKGRFTISRDNAKNTVYLQMNSLKPEDTAVYYCNARYSWKYDYWGQGTQVTVSS
polyreactivity (PSR sort gate): high polyreactivity

QVQLVESGGGLVQAGGSLLLSCAASGSTLDPNVMGWYRPAPGKERELVAAITSGGSTYYADSVKGRFTISRDNAKNTVYLQMNSLKPEDTAVYYCNKDKGWLAHSRIWLWYDYWGQGTQVTVSS
polyreactivity (PSR sort gate): low polyreactivity

QVQLVESGRGLVQAGGSLRLSCAASGRIFYVYAMGWSRTAPGKERELVAAITQSGGRTYYADSVKGRFTISRDNAKNTVYLQMNSLKPEDTAVYYCAATWLGSRNLVHITLYYWGQGTQVTVSS
polyreactivity (PSR sort gate): low polyreactivity

QVQLVESGGGLVQAGGSLRLSCAASGRIFRGYAMGWYRQAPGKERELVAAISQSGSSTYYADSVKGRFTISRDNAKNTVYLQMNSLKPEDTAVYFCAVKYLKHFGYWGQGTQVTVSS
polyreactivity (PSR sort gate): high polyreactivity
